Two molecules from PMC4522657, “Identification of a DYRK1A Inhibitor that Induces Degradation of the Target Kinase using Co-chaperone CDC37 fused with Luciferase nanoKAZ” (Scientific Reports, 2015) can be followed below.

Test in all cases: ELISA; Lysates (HENG buffer: 50 mM HEPES-KOH pH 7.9, 150 mM NaCl, 20 mM Na2MoO4, 2 mM EDTA, 5% glycerol, 0.5% Triton X-100) of 293T cells stably expressing CDC37-nanoKAZ, nanoKAZ-HSP90β or nanoKAZ and transiently transfected with 3xFLAG-tagged kinases; 3xFLAG-kinase captured on 96-well plates coated with anti-FLAG M2, 4 °C for 3 h, washed; bound nanoKAZ fusion read by luminescence (Imax) with bis-coelenterazine, as …
Holding throughout (settings): partners not purified

In assay [1] the target is T1, 3xFLAG-tagged kinase-dead mutant of DYRK1A (K188R) (UniProt Q13627-1 1-763, K188R).
T1 construct: DYRK1A with Lys188 substituted to Arg; Expressed upstream of F2A-EGFP as m2; also called K188R mutant

The target in assay [2] is T2, 3xFLAG-DYRK1A (Y319F/Y321F) (UniProt Q13627-1 1-763, Y319F | Y321F).
T2 construct: Expressed upstream of F2A-EGFP as m2; also called Y319F/Y321F mutant; DYRK1A mutant

In the next assay the target is T3, 3xFLAG-tagged DYRK4 (UniProt Q9NR20 1-520).
T3 construct: DYRK4; residues of F2A may remain at the C-terminus (surmise); also called 3xFLAG-DYRK4; source: 293T cells stably expressing CDC37-nanoKAZ, transiently transfected (pcDNA5/FRT/TO), in lysate
T3 sequence (looked up): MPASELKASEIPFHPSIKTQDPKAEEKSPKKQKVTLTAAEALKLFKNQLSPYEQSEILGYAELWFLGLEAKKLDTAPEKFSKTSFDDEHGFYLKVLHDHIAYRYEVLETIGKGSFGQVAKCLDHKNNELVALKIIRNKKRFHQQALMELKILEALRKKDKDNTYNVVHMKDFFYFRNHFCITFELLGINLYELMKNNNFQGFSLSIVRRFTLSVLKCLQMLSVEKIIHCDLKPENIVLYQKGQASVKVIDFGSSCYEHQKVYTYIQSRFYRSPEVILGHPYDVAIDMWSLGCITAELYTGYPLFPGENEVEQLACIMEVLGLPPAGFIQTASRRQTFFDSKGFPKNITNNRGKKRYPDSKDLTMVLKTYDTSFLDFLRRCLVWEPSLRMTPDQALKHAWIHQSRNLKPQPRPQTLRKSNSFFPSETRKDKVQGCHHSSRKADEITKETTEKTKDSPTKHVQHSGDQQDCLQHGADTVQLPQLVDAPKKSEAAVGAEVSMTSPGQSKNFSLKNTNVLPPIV

In a further assay the target is T4, 3xFLAG-DYRK1A (Y159F) (UniProt Q13627-1 1-763, Y159F).
T4 construct: DYRK1A with the autophosphorylation site Tyr159 substituted to Phe; Expressed upstream of F2A-EGFP as m2

Another assay concerns the target T5, 3xFLAG-DYRK1A (Y111F) (UniProt Q13627-1 1-763, Y111F).
T5 construct: DYRK1A with the autophosphorylation site Tyr111 substituted to Phe; Expressed upstream of F2A-EGFP as m2

Assay [3] has as its target T6, 3xFLAG-DYRK1A (Y145F/Y147F) (UniProt Q13627-1 1-763, Y145F | Y147F).
T6 construct: DYRK1A with the autophosphorylation sites Tyr145 and Tyr147 substituted to Phe; Expressed upstream of F2A-EGFP as m2

B1: nanoKAZ-HSP90β (natural protein)
chain: not shown
notes: HSP90β (HSP90AB1 gene product); Codon-optimized nanoKAZ (GenBank AB823628) fused to the amino-terminus of HSP90β; also called HSP90β fused with nanoKAZ; nanoKAZ-HSP90AB1; source: 293T cell line stably expressing nanoKAZ-HSP90β (pCAGIPuro vector), in lysate; not shown: nanoKAZ (luciferase reporter), N-terminal, kept
Regarding B1, the entries for the “fold stronger interaction than intact DYRK1A” value in assay [1] and in assay [2] were 10 fold and 3.8 fold, respectively.

B2: CDC37-nanoKAZ (natural protein, UniProt Q16543 1-378, looked up)
chain: MVDYSVWDHIEVSDDEDETHPNIDTASLFRWRHQARVERMEQFQKEKEELDRGCRECKRKVAECQRKLKELEVAEGGKAELERLQAEAQQLRKEERSWEQKLEEMRKKEKSMPWNVDTLSKDGFSKSMVNTKPEKTEEDSEEVREQKHKTFVEKYEKQIKHFGMLRRWDDSQKYLSDNVHLVCEETANYLVIWCIDLEVEEKCALMEQVAHQTIVMQFILELAKSLKVDPRACFRQFFTKIKTADRQYMEGFNDELEAFKERVRGRAKLRIEKAMKEYEEEERKKRLGPGGLDPVEVYESLPEELQKCFDVKDVQMLQDAISKMDPTDAKYHMQRCIDSGLWVPNSKASEAKEGEEAGPGDPLLEAVPKTGDEKDVSV
notes: Kinase-specific co-chaperone CDC37; also called CDC37 fused with nanoKAZ; source: 293T cells stably expressing CDC37-nanoKAZ (pCAGIPuro vector), in lysate; not shown: nanoKAZ (luciferase reporter), C-terminal, kept
Take B2: the “fold stronger interaction than intact DYRK1A” value stood at 17 fold in assay [1]; 8 fold in assay [2]; 8.4 fold with 3xFLAG-DYRK1A (Y159F); 1.4 fold with 3xFLAG-DYRK1A (Y111F); 2.4 fold in assay [3]. In the assay with 3xFLAG-tagged DYRK4, the “fold stronger interaction than 3xFLAG-DYRK1A” value is 102 fold.
